# Results reported in US20240317858A1.
# Biological target: Mouse CD3εδ Fc heterodimer (mouse) (UniProt P22646)
# Experiment: BLI (Octet), IgG avidity, pH 7.4
row,Kd,Binder
1,91 nM,"Antibody No. A002 (ADI-50024) IgG1 (antibody, V domains shown) VH: QVQLVQSGAEVKKPGASVKVSCKASGFNIKDYYMHWVRQAPGQRLEWIGWIDLENANTVYDAKFQGRVTITRDTSASTAYMELSSLRSEDTAVYYCARDAYGRYFYDVWGQGTLVTVSS VL: DIVMSQSPDSLAVSLGERATINCKSSQSLLNARTGKNYLAWYQQKPGQPPKLLIYWASTRSSGVPDRFSGSGSGTDFTLTISSLQAEDVAVYYCVQSYFRRTFGGGTKVEIK"
2,360 nM,"Antibody No. V009 (ADI-70326) IgG1 (antibody, V domains shown) VH: QVQLVQSGAEVKKPGASVKVSCKASGFDIKDYYMHWVRQAPGQRLEWIGWIELENADTVYDAKFQGRVTITRDTSASTAYMELSSLRSEDTAVYYCARDAYGRYFYDVWGQGTLVTVSS VL: DIVMSQSPDSLAVSLGERATINCKSSQSLLNARTGKNYLAWYQQKPGQPPKLLIYWASTRSSGVPDRFSGSGSGTDFTLTISSLQAEDVAVYYCVQSYFRRTFGGGTKVEIK"
3,530 nM,"Antibody No. V013 (ADI-70330) IgG1 (antibody, V domains shown) VH: QVQLVQSGAEVKKPGASVKVSCKASGFNIDDYYMHWVRQAPGQRLEWIGWIDLENANTVDDAKFQGRVTITRDTSASTAYMELSSLRSEDTAVYYCARDAYGRYFYDVWGQGTLVTVSS VL: DIVMSQSPDSLAVSLGERATINCKSSQSLLNARTGKNYLAWYQQKPGQPPKLLIYWASTRSSGVPDRFSGSGSGTDFTLTISSLQAEDVAVYYCVQSYFRRTFGGGTKVEIK"
4,510 nM,"Antibody No. V010 (ADI-70327) IgG1 (antibody, V domains shown) VH: QVQLVQSGAEVKKPGASVKVSCKASGFDIKDYYMHWVRQAPGQRLEWIGWIELENDDTVYDAKFQGRVTITRDTSASTAYMELSSLRSEDTAVYYCARDAYGRYFYDVWGQGTLVTVSS VL: DIVMSQSPDSLAVSLGERATINCKSSQSLLNARTGKNYLAWYQQKPGQPPKLLIYWASTRSSGVPDRFSGSGSGTDFTLTISSLQAEDVAVYYCVQSYFRRTFGGGTKVEIK"
